We go through 6 substances from paper PMC7988105.

Experiment [1] concerns the target NRXN1β (lacking SS4) Fc fusion used as bait in the pull-down. In words: pull-down; soluble recombinant proteins mixed at 0.03 μM each in HBSS, 2 mM CaCl2, 1 mM MgCl2, 3 h, then Protein A-Sepharose 1 h, room temperature; NLGN3-His6 detected with anti-His.
Experiment [2] has as its target NLGN3 ECD HSE/AAA mutant (H279A S280A E281A) with His6 tag (mouse) (UniProt Q8BYM5). Put plainly: ITC; NLGN3 ECD (20 µM) in the cell, PTPδ Ig1–Fn1 (200 µM) injected; 20 mM Tris-HCl pH 8.0, 150 mM NaCl, 25 °C; one-site model. A general note: ITC needs no label: the signal is the heat of the interaction.
For experiment [3], the target named is mouse NLGN3 ECD (residues 35–684) with C-terminal His6 tag (mouse) (UniProt Q8BYM5). The description is as above.
For experiment [4], the target named is NLGN3 ECD MF/IS mutant (M614I F615S) with His6 tag (mouse) (UniProt Q8BYM5). Described as above.
Experiment [5] deals with PTPδA3B– extracellular domain fused to Fc. Put plainly: pull-down. As to conditions: parent: est. 100; read off a plot.

By Kd is commonly meant the concentration at which binding is half-saturated. Read a high Kd as a looser complex.

NLGN3 ECD HSE/AAA mutant (H279A S280A E281A) with His6 tag (mouse), sequence (Q8BYM5 35-684 H279A/S280A/E281A): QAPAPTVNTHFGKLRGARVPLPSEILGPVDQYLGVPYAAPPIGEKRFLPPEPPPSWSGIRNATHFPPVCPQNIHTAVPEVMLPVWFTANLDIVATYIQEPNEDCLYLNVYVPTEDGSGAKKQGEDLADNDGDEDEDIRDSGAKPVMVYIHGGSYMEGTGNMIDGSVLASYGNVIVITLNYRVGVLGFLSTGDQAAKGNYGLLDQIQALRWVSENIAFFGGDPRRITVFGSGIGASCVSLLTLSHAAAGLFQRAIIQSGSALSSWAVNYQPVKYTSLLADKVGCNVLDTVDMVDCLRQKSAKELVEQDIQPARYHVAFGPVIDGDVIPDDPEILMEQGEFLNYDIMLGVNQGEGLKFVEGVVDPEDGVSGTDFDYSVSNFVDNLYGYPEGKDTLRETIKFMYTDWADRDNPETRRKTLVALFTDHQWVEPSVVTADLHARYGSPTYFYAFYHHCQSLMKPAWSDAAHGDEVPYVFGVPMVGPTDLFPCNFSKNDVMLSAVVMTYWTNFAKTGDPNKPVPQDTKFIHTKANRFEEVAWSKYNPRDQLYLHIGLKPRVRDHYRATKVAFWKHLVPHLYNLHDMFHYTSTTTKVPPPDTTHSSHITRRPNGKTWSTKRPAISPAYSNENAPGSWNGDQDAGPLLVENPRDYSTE
NLGN3 ECD MF/IS mutant (M614I F615S) with His6 tag (mouse), sequence (Q8BYM5 35-684 M614I/F615S): as the sequence (Q8BYM5 35-684 H279A/S280A/E281A) above, with A245H, A246S, A247E, M580I, F581S counted along it
mouse NLGN3 ECD (residues 35–684) with C-terminal His6 tag (mouse), sequence (Q8BYM5 35-684): as the sequence (Q8BYM5 35-684 H279A/S280A/E281A) above, with A245H, A246S, A247E counted along it

“NLGN3 ECD R448C mutant (R/C; equivalent to human R451C) with His6 tag (from UniProt Q8BYM5 35-684) (domain or fragment)”: the pulldown efficiency (% of wild-type) (% of wild-type) in experiment [1] was determined as 40.
For the substance PTPδA3B– Ig1–Fn1 (domain or fragment), the dissociation constant (Kd) came to 1.4 µM in experiment [2], 4.4 µM in experiment [3] and 27 µM in experiment [4].
For the substance “mouse NLGN3 ECD (residues 35–684) with C-terminal His6 tag (from UniProt Q8BYM5) D362A; E372A; N375A”, the percent of parent in experiment [5] came out at 16 % WT.
Take “mouse NLGN3 ECD (residues 35–684) with C-terminal His6 tag (from UniProt Q8BYM5) H279A; S280A; E281A”: in experiment [5], the percent of parent is 88 % WT.
In the case of “mouse NLGN3 ECD (residues 35–684) with C-terminal His6 tag (from UniProt Q8BYM5) M614A; F615A”, the percent of parent in experiment [5] amounted to 11 % WT.
Still for that read-out and setting: for “mouse NLGN3 ECD (residues 35–684) with C-terminal His6 tag (from UniProt Q8BYM5) M614I; F615S” the value was 14 % WT.
